Experiments:
[1] = biological target: connexin36 (Cx36), rat, full length, fluorescently tagged (rat) (UniProt O70610); assay: FRET or BRET; acceptor bleach FRET on a confocal microscope, Neuro2a cells 48 h after transient co-transfection; read at gap junction plaques (GJP) or at vesicles; non-stimulated or with 2 mM [Ca2+]E and 2 μM ionomycin, 24 μM BAPTA-AM or 10 μM W-7; FRET distance calculated from the efficiency (Ro 5.09), threshold 10 nm
[2] = biological target: Cx36 mutant G276A, rat, full length, fluorescently tagged (rat) (UniProt O70610); assay: as above
[3] = biological target: Cx36 mutant R278A, rat, full length, fluorescently tagged (rat) (UniProt O70610); assay: as above
[4] = biological target: connexin36 (Cx36), rat, full length, fluorescently tagged (rat) (UniProt O70610)

calcium insensitive mutant CaM_(E1234Q) (from UniProt P0DP29 1-149) (natural protein)
FRET distance (GJP, non-stimulated) [1]: 10.9 nm
FRET distance (GJP, stimulated with Ca2+ and ionomycin) [1]: 10.1 nm
FRET distance (vesicles, non-stimulated) [1]: 9.96 nm
FRET distance (vesicles, stimulated with Ca2+ and ionomycin) [1]: 10.8 nm

calmodulin (CaM), rat, full length, fluorescently tagged (from UniProt P0DP29 1-149) (natural protein)
FRET distance (vesicles, non-stimulated) [2]: 8.16 nm
FRET distance (vesicles, stimulated with Ca2+ and ionomycin) [2]: 7.48 nm
FRET efficiency (vesicles, non-stimulated) [2]: 6.61%
FRET efficiency (vesicles, stimulated with Ca2+ and ionomycin) [2]: 9.74%
FRET distance (GJP, non-stimulated) [1]: 9.11 nm
FRET distance (GJP, stimulated with Ca2+ and ionomycin) [1]: 9.61 nm
FRET distance (vesicles, non-stimulated) [1]: 9.27 nm
FRET distance (vesicles, non-stimulated; panel of the alanine mutants) [1]: 9.15 nm
FRET distance (vesicles, stimulated with Ca2+ and ionomycin) [1]: 8.09 nm
FRET distance (vesicles, stimulated with Ca2+ and ionomycin; panel of the alanine mutants) [1]: 7.69 nm
FRET efficiency (GJP, 10 μM W-7) [1]: 2.7%
FRET efficiency (GJP, 24 μM BAPTA-AM) [1]: 2.8%
FRET efficiency (GJP, non-stimulated; FRET pair I Cx36–DsRed, CaM–ECFP) [1]: 3.23%
FRET efficiency (GJP, non-stimulated; FRET pair II Cx36–ECFP, CaM–DsRed) [1]: 3.35%
FRET efficiency (GJP, stimulated with Ca2+ and ionomycin) [1]: 2.8%
FRET efficiency (vesicles, non-stimulated; FRET pair I Cx36–DsRed, CaM–ECFP) [1]: 3.65%
FRET efficiency (vesicles, non-stimulated; FRET pair II Cx36–ECFP, CaM–DsRed) [1]: 3.09%
FRET efficiency (vesicles, stimulated with Ca2+ and ionomycin) [1]: 6.38%
FRET efficiency (vesicles, stimulated with Ca2+ and ionomycin; panel of the alanine mutants) [1]: 8.82%
FRET distance (vesicles, non-stimulated) [3]: 9.33 nm
FRET distance (vesicles, stimulated with Ca2+ and ionomycin) [3]: 8.26 nm
FRET efficiency (vesicles, non-stimulated) [3]: 2.84%
FRET efficiency (vesicles, stimulated with Ca2+ and ionomycin) [3]: 6.54%
ethidium bromide fluorescence recovery after photobleaching in pairs of Neuro2a cells expressing Cx36–ECFP (CaM of the cells), non-stimulated [4]: 5.82%
ethidium bromide fluorescence recovery after photobleaching in pairs of Neuro2a cells expressing Cx36–ECFP (CaM of the cells), stimulated with 2 mM [Ca2+]E and 2 μM ionomycin [4]: 47.5%
ethidium bromide fluorescence recovery after photobleaching in pairs of Neuro2a cells expressing Cx36–ECFP, CaM blocked with 10 μM W-7, non-stimulated [4]: 16.6%
ethidium bromide fluorescence recovery after photobleaching in pairs of Neuro2a cells expressing Cx36–ECFP, CaM blocked with 10 μM W-7, stimulated with 2 mM [Ca2+]E and 2 μM ionomycin [4]: 3.77%

Reference: publication PMC5114276
